Assay results published in patent US20150056630A1, “DNA CONTROLLING MIR-140 EXPRESSION, AND SCREENING METHOD OF DRUGS USING SAID DNA” (NATIONAL CENTER FOR CHILD HEALTH AND DEVELOPMENT, priority 2012, published 2015).

Experiments:
[1] = biological target: T1, Sox9 (recombinant, rSox9) (UniProt Q04887 Q04887:1-507); test: EMSA; 0.1 ug rSox9, poly dG-dC, 50 mM KCl, room temperature; supershift with anti-Sox9; settings: label: 32P
Description: (§1) To a reaction solution containing 20 mmol/L of HEPES (pH 7.9), 10% of glycerol, 50 mmol/L of KCl, 0.05% of NP-40, 0.5 mmol/L of EDTA, 0.5 mmol/L of DTT, 1 mmol/L of PMSF and 0.25 μg of Poly dG-dC was/were appropriately added 0.1 μg of a recombinant Sox9 (rSox9) and/or an anti-Sox9 antibody (manufactured by Millipore Corporation) followed by incubating at room temperature for 30 minutes. After that, the above RI-labeled probe was added, incubated at room temperature for 30 minutes and subjected to 4% polyacrylamide gel electrophoresis. After the electrophoresis, RI was detected using FLA-7000 (manufactured by Fujifilm) which is an image analysis apparatus.

[2] = biological target: T2, recombinant Sox9 (rSox9) (Homo sapiens, UniProt P48436); test: Electrophoretic mobility shift assay (EMSA), Sox9 binding of RI-labeled probes; settings: for shift of the band: incubation with rSox9
T2 sequence (P48436 1-509): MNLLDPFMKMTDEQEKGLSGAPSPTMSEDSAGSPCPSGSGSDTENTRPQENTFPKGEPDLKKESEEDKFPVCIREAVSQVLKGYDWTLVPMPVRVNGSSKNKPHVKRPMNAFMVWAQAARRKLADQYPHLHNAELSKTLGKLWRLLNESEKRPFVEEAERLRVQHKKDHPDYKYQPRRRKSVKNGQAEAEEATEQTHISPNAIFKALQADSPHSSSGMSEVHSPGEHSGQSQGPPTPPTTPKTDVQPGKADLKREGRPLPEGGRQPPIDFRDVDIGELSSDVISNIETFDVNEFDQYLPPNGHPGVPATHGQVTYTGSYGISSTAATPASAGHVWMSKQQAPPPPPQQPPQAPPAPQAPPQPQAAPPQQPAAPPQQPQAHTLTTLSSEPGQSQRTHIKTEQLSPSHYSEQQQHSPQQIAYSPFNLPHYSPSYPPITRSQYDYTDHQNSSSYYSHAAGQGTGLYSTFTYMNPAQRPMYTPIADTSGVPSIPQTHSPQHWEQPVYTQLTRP
Description: To a reaction solution comprising 1× Protruding End Kinase buffer, 0.4 μmol/L of sense oligo or antisense oligo and 1 U of T4 Polynucleotide Kinase (manufactured by Toyobo Co., Ltd.) was added P^32 γATP followed by subjecting to a reaction at 37° C. for 1 hour. The sense oligo and the antisense oligo finishing each of their reactions were mixed, incubated at 99° C. for 10 seconds and gradually returned to room temperature during 1 hour to prepare a double-stranded DNA labeled with radioisotope (RI). The RI-labeled probe was used after purifying by PrbeQuant G-50 Micro Column.
as §1

[3] = biological target: T1, Sox9 (recombinant, rSox9); test: EMSA; right-side half-site mutated; shift disappeared; settings: label: 32P
Description: as §1

[4] = biological target: T1, Sox9 (recombinant, rSox9); test: EMSA; left-side half-site mutated; shift still observed; settings: label: 32P
Description: as §1

[5] = biological target: T1, Sox9 (recombinant, rSox9); test: EMSA; both sides mutated; shift disappeared; settings: label: 32P
Description: as §1

B1: miR140-PSB probe (dsDNA)
DNA 1: CTGGACTGAGCCCCATTCATCGTCCTGCTGCT
DNA 2: AGCAGCAGGACGATGAATGGGGCTCAGTCCAG
B1: binds [1].

B2: miR-140-PSB-mut1: RI-labeled probe, SEQ ID Nos. 30/31, mutation in the right side of the palindromic Sox9 binding sequence (nucleic acid)
chain 1: CTGGACTGAGCCCCAGGCATCGTCCTGCTGCT
chain 2: AGCAGCAGGACGATGCCTGGGGCTCAGTCCAG
modifications: DNA, backbone and methylation of C not given here; radioisotope-labeled double-stranded DNA probe, further chemistry not fully specified
In the case of B2, the “shift of the band” value [2] is reported as “shift of the band disappeared”.

B3: miR140-PSB-mut1 probe (dsDNA)
DNA 1: CTGGACTGAGCCCCAGGCATCGTCCTGCTGCT
DNA 2: AGCAGCAGGACGATGCCTGGGGCTCAGTCCAG
B3: no binding [3].

B4: miR-140-PSB: RI-labeled double-stranded DNA probe, SEQ ID Nos. 28/29, palindromic Sox9 binding sequence (Table 3: miR140-PSB) (nucleic acid)
chain 1: CTGGACTGAGCCCCATTCATCGTCCTGCTGCT
chain 2: AGCAGCAGGACGATGAATGGGGCTCAGTCCAG
modifications: DNA, backbone and methylation of C not given here; radioisotope-labeled double-stranded DNA probe, further chemistry not fully specified
B4 was tested, and the “shift of the band” value [2] was “shift of the band was observed” and the “supershift of the band” value ([2]; rSox9 and further incubation with anti-Sox9 antibody) was “supershift of the band was observed”.

B5: miR140-PSB-mut2 probe (dsDNA)
DNA 1: CTGGGTTGGGCCCCATTCATCGTCCTGCTGCT
DNA 2: AGCAGCAGGACGATGAATGGGGCCCAACCCAG
B5: binds [4].

B6: miR-140-PSB-mut2: RI-labeled probe, SEQ ID Nos. 32/33, mutation in the left side of the palindromic Sox9 binding sequence (nucleic acid)
chain 1: CTGGGTTGGGCCCCATTCATCGTCCTGCTGCT
chain 2: AGCAGCAGGACGATGAATGGGGCCCAACCCAG
modifications: DNA, backbone and methylation of C not given here; radioisotope-labeled double-stranded DNA probe, further chemistry not fully specified
In the case of B6, the “shift of the band” value [2] is reported as “shift of the band was observed”.

B7: miR140-PSB-mut3 probe (dsDNA)
DNA 1: CTGGGTTGGGCCCCAGGCATCGTCCTGCTGCT
DNA 2: AGCAGCAGGACGATGCCTGGGGCCCAACCCAG
B7: no binding [5].

B8: miR-140-PSB-mut3: RI-labeled probe, SEQ ID Nos. 34/35, mutation in both sides of the palindromic Sox9 binding sequence (nucleic acid)
chain 1: CTGGGTTGGGCCCCAGGCATCGTCCTGCTGCT
chain 2: AGCAGCAGGACGATGCCTGGGGCCCAACCCAG
modifications: DNA, backbone and methylation of C not given here; radioisotope-labeled double-stranded DNA probe, further chemistry not fully specified
For B8, the “shift of the band” value [2] was “shift of the band disappeared”.
